{"source": "paper PMC8024369", "key": {"[1]": {"target": "rationally optimised SUWA (N22E/H86K mutant of SUWA, super WA20)", "assay": "SEC-MALS; Superdex 75 Increase 10/300 GL, 20 °C, 20 mM HEPES pH 7.5, 150 mM NaCl, 5% glycerol; oligomeric number from the mass of each peak and the theoretical mass of the monomer"}, "[2]": {"target": "rationally optimised WA20 (N22A/H86K mutant of the de novo protein WA20)", "assay": "SEC-MALS; Superdex 75 Increase 10/300 GL, 20 °C, 20 mM HEPES pH 7.5, 150 mM NaCl, 5% glycerol; oligomeric number from the mass of each peak and the theoretical mass of the monomer"}}, "note": "“And” between values parts separate entries of the source, which are not always exact repeats. Equal values may be shown once.", "data": [{"substance": "rationally optimised SUWA (N22E/H86K mutant of SUWA, super WA20)", "values": [{"measurement": "mass fraction of peak (i), dimer", "setting": "[1]", "result": 64, "unit": "%"}, {"measurement": "mass fraction of peak (ii), tetramer", "setting": "[1]", "result": 18, "unit": "%"}, {"measurement": "mass fraction of peak (iii), hexamer", "setting": "[1]", "result": 7, "unit": "%"}, {"measurement": "mass fraction of peak (iv), higher oligomers", "setting": "[1]", "result": 11, "unit": "%"}]}, {"substance": "rationally optimised WA20 (N22A/H86K mutant of the de novo protein WA20)", "values": [{"measurement": "mass fraction of peak (i), dimer", "setting": "[2]", "result": 77, "unit": "%"}, {"measurement": "mass fraction of peak (ii), tetramer", "setting": "[2]", "result": 21, "unit": "%"}, {"measurement": "mass fraction of peak (iii), hexamer", "setting": "[2]", "result": 2, "unit": "%"}, {"measurement": "stoichiometry N", "setting": "[2]", "result": "2 mer and 4 mer and 6 mer"}]}]}
